Data from paper PMC4748815 (RNA, 2016).
Where two headings read alike, the source gives them in different places.

B1: GST-tagged mouse TTP (natural protein, UniProt P22893 1-319, looked up)
chain: MDLSAIYESLQSMSHDLSSDHGGTESLGGLWNINSDSIPSGVTSRLTGRSTSLVEGRSCGWVPPPPGFAPLAPRPGPELSPSPTSPTATPTTSSRYKTELCRTYSESGRCRYGAKCQFAHGLGELRQANRHPKYKTELCHKFYLQGRCPYGSRCHFIHNPTEDLALPGQPHVLRQSISFSGLPSGRRSSPPPPGFSGPSLSSCSFSPSSSPPPPGDLPLSPSAFSAAPGTPVTRRDPNQACCPSCRRSTTPSTIWGPLGGLARSPSAHSLGSDPDDYASSGSSLGGSDSPVFEAGVFGPPQTPAPPRRLPIFNRISVSE

Columns and labels:
Experiment in all cases: pull-down
His6-tagged mouse GYF2 [1] = molecular target: T1, His6-tagged mouse GYF2 (mouse, UniProt Q6Y7W8 1-1291)
T1 sequence (looked up): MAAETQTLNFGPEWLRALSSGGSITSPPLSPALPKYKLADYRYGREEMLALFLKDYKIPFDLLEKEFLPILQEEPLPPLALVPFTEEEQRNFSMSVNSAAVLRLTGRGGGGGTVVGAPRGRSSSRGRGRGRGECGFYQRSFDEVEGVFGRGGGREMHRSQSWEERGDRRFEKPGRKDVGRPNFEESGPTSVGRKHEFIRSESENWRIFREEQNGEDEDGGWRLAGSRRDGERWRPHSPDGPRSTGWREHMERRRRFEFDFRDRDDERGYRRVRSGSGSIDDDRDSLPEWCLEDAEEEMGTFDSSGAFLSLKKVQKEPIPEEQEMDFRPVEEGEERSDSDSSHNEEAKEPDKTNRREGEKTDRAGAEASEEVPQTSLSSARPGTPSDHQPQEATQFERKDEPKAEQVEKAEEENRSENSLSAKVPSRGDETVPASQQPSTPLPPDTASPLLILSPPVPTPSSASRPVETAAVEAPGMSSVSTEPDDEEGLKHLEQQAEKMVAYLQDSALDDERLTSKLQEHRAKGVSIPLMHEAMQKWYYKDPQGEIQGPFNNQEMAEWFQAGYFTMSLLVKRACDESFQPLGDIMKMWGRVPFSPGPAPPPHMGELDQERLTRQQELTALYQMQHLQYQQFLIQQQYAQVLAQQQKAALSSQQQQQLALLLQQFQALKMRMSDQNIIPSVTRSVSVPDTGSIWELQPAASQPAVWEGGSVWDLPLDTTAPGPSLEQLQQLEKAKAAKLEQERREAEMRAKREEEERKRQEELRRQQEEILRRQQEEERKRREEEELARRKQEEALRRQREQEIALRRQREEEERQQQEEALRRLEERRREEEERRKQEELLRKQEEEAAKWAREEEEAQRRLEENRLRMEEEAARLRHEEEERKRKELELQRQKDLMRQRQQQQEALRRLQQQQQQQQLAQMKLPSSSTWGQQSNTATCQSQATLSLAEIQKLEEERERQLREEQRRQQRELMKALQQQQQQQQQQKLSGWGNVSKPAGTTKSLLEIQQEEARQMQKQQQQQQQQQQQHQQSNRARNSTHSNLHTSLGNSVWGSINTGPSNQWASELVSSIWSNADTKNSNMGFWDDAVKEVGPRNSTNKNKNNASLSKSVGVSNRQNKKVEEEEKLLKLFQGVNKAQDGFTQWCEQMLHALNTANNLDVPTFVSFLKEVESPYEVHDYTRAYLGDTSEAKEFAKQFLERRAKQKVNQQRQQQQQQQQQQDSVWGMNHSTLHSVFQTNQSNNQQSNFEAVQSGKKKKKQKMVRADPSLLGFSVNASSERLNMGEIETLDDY

His6-tagged mouse GYF2 [2] = molecular target: T1, His6-tagged mouse GYF2; remark: listed apart in the source
GST-tagged mouse TTP = molecular target: B1

B1
binding result (His6-tagged mouse GYF2 [1]): binds

B2: His6-tagged mouse 4EHP (natural protein, UniProt Q8BMB3 1-245, looked up)
chain: MNNKFDALKDDDSGDHDQNEENSTQKDGEKEKTDRDKSQSSGKRKAVVPGPAEHPLQYNYTFWYSRRTPGRPTSSQSYEQNIKQIGTFASVEQFWKFYSHMVRPGDLTGHSDFHLFKEGIKPMWEDDANKNGGKWIIRLRKGLASRCWENLILAMLGEQFMVGEEICGAVVSVRFQEDIISIWNKTASDQATTARIRDTLRRVLNLPPNTIMEYKTHTDSIKMPGRLGPQRLLFQNLWKPRLNVP
binding result (His6-tagged mouse GYF2 [2]): binds | binding result (GST-tagged mouse TTP): binds
